The target in the assay is T1, M. tuberculosis AccA3, His tag fusion (α-subunit of the acyl-CoA carboxylases) (M. tuberculosis, UniProt P96890 1-600).
T1 construct: also called His-AccA3; AccA3-His6
Nature of the assay: pull-down. The settings on record: both partners purified.

T1 sequence (P96890 whole entry, the tested form may be a part): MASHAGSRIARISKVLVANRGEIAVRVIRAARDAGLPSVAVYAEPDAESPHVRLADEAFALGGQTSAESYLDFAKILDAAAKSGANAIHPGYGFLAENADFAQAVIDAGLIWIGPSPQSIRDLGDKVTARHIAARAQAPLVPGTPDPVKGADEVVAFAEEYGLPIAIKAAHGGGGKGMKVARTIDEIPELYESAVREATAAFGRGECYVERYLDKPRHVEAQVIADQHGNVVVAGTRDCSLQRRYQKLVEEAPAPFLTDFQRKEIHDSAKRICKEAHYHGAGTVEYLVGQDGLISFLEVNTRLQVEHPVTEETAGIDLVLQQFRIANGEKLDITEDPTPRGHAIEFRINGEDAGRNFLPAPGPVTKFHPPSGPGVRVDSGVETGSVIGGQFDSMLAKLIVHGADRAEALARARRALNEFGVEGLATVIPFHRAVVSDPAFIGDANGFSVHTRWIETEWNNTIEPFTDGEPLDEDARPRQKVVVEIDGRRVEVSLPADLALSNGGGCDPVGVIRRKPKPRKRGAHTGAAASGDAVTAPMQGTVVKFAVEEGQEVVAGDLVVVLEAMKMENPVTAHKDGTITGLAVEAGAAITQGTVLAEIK

B1: Azospirillum brasilense GlnB (PII protein), without tags (natural protein, A. brasilense, UniProt P21193 1-112, looked up)
chain: MKKIEAIIKPFKLDEVKEALHEVGIKGITVTEAKGFGRQKGHTELYRGAEYVVDFLPKVKIEVVMEDSLVERAIEAIQQAAHTGRIGDGKIFVTPVEEVVRIRTGEKGGDAI
notes: also called Ab-GlnB; PII (Ab); source: E. coli (plasmid pLH25PET, pET28a), obtained without tags according to Gerhardt et al. (2015, 2017)
Consider B1, for which the binding result is “binds”.
